Where “and” joins values, the source holds several entries; their conditions need not be identical. Equal entries are not always repeated. One block for each binder: values may come before it.
Legend:
β Amyloid peptide 1-40 [1] = molecular target: T1, β Amyloid peptide 1-40 (human, UniProt P05067 672-711); assay: KinExA, mAb, single experiment
T1 construct: domain: β Amyloid peptide 1-40; Biotinylated peptide 1-40 (Biosource) on avidin Sepharose only captured free antibody in KinExA; also called Aβ 1-40; human Aβ (1-40)
T1 sequence (P05067 672-711 limits assumed): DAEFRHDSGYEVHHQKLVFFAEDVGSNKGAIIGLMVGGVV
Protocol: (§1) Typical 1× concentrations were 10 pM of antibody active sites (0.75 ng/mL) and an upper antigen concentration of 100 pM (0.43 ng/mL). The samples were then allowed to equilibrate for 24-72 hours at room temperature. A KinExA™ instrument (Sapidyne) and standard KD run file were then used to determine the KD of the system. Briefly, the KinExA™ flow cell was charged with the β Amyloid peptide coated beads and washed with PBSA. For the first sample, free antibody in solution was captured by the beads washed with PBSA and detected using 1:250 Goat anti-human Cy5 (Jackson Immunochemicals) in PBSA. The flow cell was then flushed, re-charged with beads and the next sample analyzed. The process was repeated until all 12 samples were analyzed.

β Amyloid peptide 1-40 [2] = molecular target: T1, β Amyloid peptide 1-40; assay: BIAcore; m266 is the reference
β Amyloid peptide 1-40 [3] = molecular target: T1, β Amyloid peptide 1-40; assay: KinExA, mAb, single experiment; remark: listed apart in the source
Protocol: (§2) For KinExA™ kₒₙ and koff measurements, antigen and antibody were prepared as described above. Antigen and antibody samples at 2× active concentration were prepared in PBSA with 0.2% BSA. Samples were mixed 1:1 and the timing for the experiment started. Typical 1× concentrations were 1 nM antibody active site concentration ([…]) and 2 nM antigen (8.6 ng/mL). A KinExA™ instrument (Sapidyne) and a kineticsdirect run file were used to follow the reaction. Time for each measurement was determined using the manufacturer's instructions. Free antibody remaining in the reaction was captured using β amyloid coated beads packed into the flow cell washed with PBSA and detected at each time point using 1:250 Goat anti-human Cy5 (Jackson) in PBSA. The flow cell was then flushed and recharged with beads for the next measurement, the process continued until a complete decay curve obtained. The data was analyzed using the KinExA™ Inject software.
(§3) Association rate constants (kₒₙ) of m266 and antibodies of the present invention with Aβ were determined by KinExA™, using methods as described above in Example 1. The results of two separate kₒₙ determinations by KinExA™, in which separate preparations of antibodies were used, are provided in Tables 7 and 8.

β Amyloid peptide 1-40 [4] = molecular target: T1, β Amyloid peptide 1-40; assay: KinExA, mAb, single experiment; remark: listed apart in the source
Protocol: as §2, §3

β Amyloid peptide 1-40 [5] = molecular target: T1, β Amyloid peptide 1-40; assay: KinExA, mAb, equilibration 16 h
Protocol: as §1, with “The samples were then allowed to equilibrate for 24-72 hours at room temperature.” left out
as §2

β Amyloid peptide 1-40 [6] = molecular target: T1, β Amyloid peptide 1-40; assay: KinExA, mAb; m266 is the reference
β Amyloid peptide 1-40 [7] = molecular target: T1, β Amyloid peptide 1-40; assay: KinExA, mAb; m266 is the reference; remark: listed apart in the source
Protocol: as §2, §3

β Amyloid peptide 1-40 [8] = molecular target: T1, β Amyloid peptide 1-40; assay: KinExA, mAb, average of the experiments
Protocol: as §1

β Amyloid peptide 1-40 [9] = molecular target: T1, β Amyloid peptide 1-40; assay: KinExA, mAb, average of the experiments; remark: listed apart in the source
Protocol: as §2, §3

β Amyloid peptide 1-40 [10] = molecular target: T1, β Amyloid peptide 1-40; assay: KinExA, mAb, average of the experiments; remark: listed apart in the source
Protocol: as §2, §3

β Amyloid peptide 1-40 [11] = molecular target: T1, β Amyloid peptide 1-40; assay: KinExA, mAb, single experiment, separate antigen preparation
Protocol: as §2
(§4) Association rate constants (kₒₙ) of m266 and antibodies of the present invention with Aβ were determined by KinExA™, using methods as described above in Example 1. […]
(§5) ^aNumbers in bold are the averages calculated from individual experiments. ^bA separate preparation of antibodies was used for these experiments. ^cA separate preparation of antigen was used for these experiments.

β Amyloid peptide 1-40 [12] = molecular target: T1, β Amyloid peptide 1-40; assay: KinExA, mAb, single experiment, separate antibody preparation
Protocol: as §2, §4, §5

β Amyloid peptide 1-40 [13] = molecular target: T1, β Amyloid peptide 1-40; assay: KinExA, mAb, single experiment, separate antibody and antigen preparations
Protocol: as §2, §4, §5

β Amyloid peptide 1-40 [14] = molecular target: T1, β Amyloid peptide 1-40; assay: BIAcore, mAb captured by anti-mouse Fc, Aβ 1-40 injected, first set of preparations
Protocol: (§6) BIAcore™ is an automated biosensor system that measures molecular interactions (Karlsson, et al. (1991) J. Immunol. Methods 145: 229-240). BIAcore™ analyses described herein were carried out at 25° C. In these experiments, antibody was immobilized at low density on a BIAcore™ CM5 or B1 chip. For the m266 antibody goat anti-mouse Fc (Jackson Immunoresearch) immobilized on CM5 in flow cell 2 was used for measuring binding constants. Goat anti-mouse was used as control antibody in flow cell 1. For the humanized antibodies, protein A or protein A/G was immobilized via amine coupling to flow cells 1 and 2 of a B1 or CM5 sensor chip.
Antibody was then captured only to flow cell 2 at desired levels (usually a 10-60 second injection of antibody) and allowed to stabilize for 5 minutes. For these experiments, a fresh aliquot of Aβ 1-40 was thawed and then diluted 1:10 in HBS-EP running buffer. The 1:10 dilution was used to make up a 200 nM Aβ solution which was serially diluted (1:2 dilutions) to a lowest concentration of 6.25 nM. Each concentration was injected over the surface for 5 minutes at a flow rate of 50 μl/min (250 μl total). The Aβ and antibody were eluted from both flow cells with a 40s injection of glycine pH 1.5. The signal is allowed to stabilize for 2 minutes before the next cycle. […] The data was analyzed using the Biaevalution™ software. […]

β Amyloid peptide 1-40 [15] = molecular target: T1, β Amyloid peptide 1-40; assay: KinExA, mAb
Protocol: as §1

β Amyloid peptide 1-40 [16] = molecular target: T1, β Amyloid peptide 1-40; assay: KinExA, mAb; remark: listed apart in the source
Protocol: as §2, §3

β Amyloid peptide 1-40 [17] = molecular target: T1, β Amyloid peptide 1-40; assay: BIAcore; against m266
Protocol: as §6
(§7) Antibody was then captured only to flow cell 2 at desired levels (usually a 10-60 second injection of antibody) and allowed to stabilize for 5 minutes. For these experiments, a fresh aliquot of Aβ 1-40 was thawed and then diluted 1:10 in HBS-EP running buffer. The 1:10 dilution was used to make up a 200 nM Aβ solution which was serially diluted (1:2 dilutions) to a lowest concentration of 6.25 nM. Each concentration was injected over the surface for 5 minutes at a flow rate of 50 μl/min (250 μl total). The Aβ and antibody were eluted from both flow cells with a 40s injection of glycine pH 1.5. The signal is allowed to stabilize for 2 minutes before the next cycle. The data from flow cell 1 is subtracted from flow cell 2 to account for any bulk shifts due to buffer differences or non-specific binding to the sensor chip or Protein A. The various concentrations were injected randomly and each concentration was run in duplicate. Two control runs of buffer only were used to control for any dissociation of antibody from the capture surface. The data was analyzed using the Biaevalution™ software. A 1:1 model with mass transfer and a local Rmax was used as the best fit for the data.
Concentrations of human Aβ (1-40) from 200 nM to 1.6 nM in 2-fold serial dilution were used to obtain on-rate constant. The upper half of Table 6 represents determinations made with a first set of antibody preparations, while the lower half represents determinations made with a second set of antibody preparations

β Amyloid peptide 1-40 [18] = molecular target: T1, β Amyloid peptide 1-40; assay: KinExA, mAb; against m266
Protocol: as §1

β Amyloid peptide 1-40 [19] = molecular target: T1, β Amyloid peptide 1-40; assay: KinExA, mAb; against m266; remark: listed apart in the source
Protocol: as §2, §3

β Amyloid peptide 1-40 [20] = molecular target: T1, β Amyloid peptide 1-40; assay: BIAcore, mAb captured, Aβ 1-40 injected, first set of preparations
Protocol: as §6, §7
Concentrations of human Aβ (1-40) from 200 nM to 1.6 nM in 2-fold serial dilution were used to obtain on-rate constant. […]

Kd (β Amyloid peptide 1-40 [1]): 0.0675 nM and 0.0854 nM
Fold Increase (kon) (β Amyloid peptide 1-40 [2]): 1 fold
kon (β Amyloid peptide 1-40 [3]): 210000 M⁻¹ s⁻¹ and 240000 M⁻¹ s⁻¹
kon (β Amyloid peptide 1-40 [4]): 129000 M⁻¹ s⁻¹ and 127000 M⁻¹ s⁻¹ and 88000 M⁻¹ s⁻¹
Kd (β Amyloid peptide 1-40 [5]): 0.0765 nM
koff (β Amyloid peptide 1-40 [5]): 6.73e-06 s⁻¹
kon (β Amyloid peptide 1-40 [5]): 88000 M⁻¹ s⁻¹
Fold increase in affinity (β Amyloid peptide 1-40 [6]): 1 fold
Fold increase in kon (β Amyloid peptide 1-40 [7]): 1 fold
Kd (β Amyloid peptide 1-40 [8]): 0.0765 nM
kon (β Amyloid peptide 1-40 [9]): 230000 M⁻¹ s⁻¹
kon (β Amyloid peptide 1-40 [10]): 154000 M⁻¹ s⁻¹
kon (β Amyloid peptide 1-40 [11]): 157000 M⁻¹ s⁻¹
kon (β Amyloid peptide 1-40 [12]): 186000 M⁻¹ s⁻¹
kon (β Amyloid peptide 1-40 [13]): 240000 M⁻¹ s⁻¹
kon (β Amyloid peptide 1-40 [14]): 130000 M⁻¹ s⁻¹
B1: m266 monoclonal antibody (antibody, V domains shown)
VH: EVKLVESGGGLVQPGGSLKLSCAVSGFTFSRYSMSWVRQTPEKRLELVAQINSVGNSTYYPDTVKGRFTISRDNAEYTLSLQMSGLRSDDTATYYCASGDYWGQGTTLTVSS
VL: DVVMTQTPLSLPVSLGDQASISCRSSQSLIYSDGNAYLHWFLQKPGQSPKLLIYKVSNRFSGVPDRFSGSGSGTDFTLKISRVETEDLGVYFCSQSTHVPWTFGGGTKLEIK
modifications: CDR H2 N-glycosylated at the Asn-Ser-Thr sequence
notes: Captured by goat anti-mouse Fc in BIAcore (mouse Fc); also called mouse antibody 266

Kd (β Amyloid peptide 1-40 [15]): 0.674 nM
kon (β Amyloid peptide 1-40 [16]): 630000 M⁻¹ s⁻¹
Fold Increase (kon) (β Amyloid peptide 1-40 [17]): 5 fold
Fold increase in affinity (β Amyloid peptide 1-40 [18]): 0.11 fold
Fold increase in kon (β Amyloid peptide 1-40 [19]): 3 fold
Kd (β Amyloid peptide 1-40 [5]): 0.122 nM
koff (β Amyloid peptide 1-40 [5]): 0.000214 s⁻¹
kon (β Amyloid peptide 1-40 [5]): 1.76e+06 M⁻¹ s⁻¹
kon (β Amyloid peptide 1-40 [20]): 590000 M⁻¹ s⁻¹
B2: 1B7 monoclonal antibody (IgG1) (antibody, V domains shown)
VH: EVQLVESGGGLVKPGGSLRLSCAASGFTFSRYSMSWVRQAPGKGLEWVGQINSRGNSTYYPDTVKGRFTISRDDSKNTLYLQMNSLKTEDTAVYYCTTGDFWGQGTLVTVSS
VL: DIVMTQTPLSLSVTPGQPASISCRSSQSLIYSDGNAYLHWYLQKPGQSPQLLIYKVSNRFSGVPDRFSGSGSGTDFTLKISRVEAEDVGVYYCSQSTHSPWTFGGGTKVEIK
